Measured values reported in PMC10951265.

Legend:
[1] = target: PorXFj (Fjoh_2906), the Flavobacterium johnsoniae PorX homolog, purified, not phosphorylated (Flavobacterium johnsoniae) (UniProt A5FFU4); assay: SEC; PorXFj 1.6 mg/mL incubated 1 h at RT with 100 uM ZnCl2; Superdex 200 Increase 10/300 GL in PBS with 100 uM ZnCl2
[2] = target: PorXFj (Fjoh_2906), the Flavobacterium johnsoniae PorX homolog, purified, not phosphorylated (Flavobacterium johnsoniae) (UniProt A5FFU4); assay: SEC; PorXFj 1.6 mg/mL incubated 1 h at RT with 100 uM CuCl2; Superdex 200 Increase 10/300 GL in PBS with 100 uM CuCl2
[3] = target: PorXFj (Fjoh_2906), the Flavobacterium johnsoniae PorX homolog, purified, not phosphorylated (Flavobacterium johnsoniae) (UniProt A5FFU4); assay: SEC; PorXFj 1.6 mg/mL incubated 1 h at RT with 100 uM MnCl2; Superdex 200 Increase 10/300 GL in PBS with 100 uM MnCl2
[4] = target: PorXFj (Fjoh_2906), the Flavobacterium johnsoniae PorX homolog, purified, not phosphorylated (Flavobacterium johnsoniae) (UniProt A5FFU4); assay: SEC-MALS; PorXFj 1.6 mg/mL incubated 1 h at RT with 100 uM ZnCl2; column equilibrated in PBS only
[5] = target: phosphorylated PorXFj (PorXFj incubated with acetyl phosphate and MgCl2) (Flavobacterium johnsoniae) (UniProt A5FFU4); assay: SEC-MALS; PorXFj 1.6 mg/mL incubated 1 h at RT with 20 mM AcP + 10 mM MgCl2; Superdex 200 Increase 10/300 GL in PBS

Substance	stoichiometry N [1]	stoichiometry N [2]	stoichiometry N [3]	stoichiometry N [4]	stoichiometry N [5]
PorXFj (Fjoh_2906), the Flavobacterium johnsoniae PorX homolog, purified, not phosphorylated (from UniProt A5FFU4 1-517) (natural protein)	2	2	2	2	–
phosphorylated PorXFj (PorXFj incubated with acetyl phosphate and MgCl2) (from UniProt A5FFU4 1-517) (natural protein)	–	–	–	–	2
